One assay relates to MDA MB231-Hpa1#4 cells. Nature of the assay: Heparanase expression in cells cultured with antibody (Western blot). Format: cell-based, human. The following applies: 25 μg per ml antibody, 72 hrs, compared to untreated or IgG2 control. How it is done:
MDA MB231-Hpa1#4 cells were cultured in the presence of 25 μg per ml anti-human heparanase antibody or control IgG2 antibody (Sigma Cat. No. 1504-1MG) for 72 hrs. Following the removal of culture medium, protein extracts were prepared from the cells in 100 μl RIPA buffer and separated on […] gels and transferred to nitrocellulose as described above. Western blots were probed with an anti-heparanase antibody that detected only pro-heparanase (SantaCruz Cat. No. SC25825).

In the next assay the target is T1, human heparanase (Homo sapiens, UniProt Q9Y251).
T1 sequence (Q9Y251 36-543): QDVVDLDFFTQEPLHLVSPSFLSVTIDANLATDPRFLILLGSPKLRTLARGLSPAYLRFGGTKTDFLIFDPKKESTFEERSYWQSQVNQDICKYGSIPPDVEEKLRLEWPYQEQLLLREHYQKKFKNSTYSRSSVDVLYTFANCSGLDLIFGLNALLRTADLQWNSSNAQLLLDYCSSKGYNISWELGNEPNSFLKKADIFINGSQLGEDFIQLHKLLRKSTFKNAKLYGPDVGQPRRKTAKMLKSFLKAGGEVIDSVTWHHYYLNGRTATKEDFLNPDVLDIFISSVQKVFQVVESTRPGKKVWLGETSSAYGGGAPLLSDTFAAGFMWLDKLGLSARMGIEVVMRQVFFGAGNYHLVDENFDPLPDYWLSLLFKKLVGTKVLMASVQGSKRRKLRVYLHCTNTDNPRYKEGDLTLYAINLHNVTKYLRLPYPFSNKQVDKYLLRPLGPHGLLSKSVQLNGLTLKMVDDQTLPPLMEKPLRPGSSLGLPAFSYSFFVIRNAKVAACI
Nature of the assay: Cross species capture ELISA, human heparanase. Format: binding. How it is done: (§1) Initially, cross species binding to human, murine and cynomolgus heparanase was determined in an ELISA assay in which heparanase was captured onto plates using a rabbit anti-heparanase antibody (Raybiotech, Cat. IP-14-155). Exhaustive supernatants were added to the plates at a final dilution of 1:5 and bound antibody detected with a rabbit anti-human IgG Fc.
For orientation: An ELISA detects its analyte on a solid surface through an enzyme-linked reagent.

Another assay deals with HCT116 xenograft. Nature of the assay: Subcutaneous xenograft tumour growth, HCT116. The following applies: once weekly i.p.; 10E9.1 at 15 mg per kg. The class given is in vivo, SCID mice. How it is done: (§2) MCF7-Hpa1#19 and HCT116 tumour cells were harvested from sub-confluent cultures. A total of 5×10^6 (MCF7-Hpa1#19) or 10^7 (HCT116) tumour cells were inoculated subcutaneously into the flank of male SCID mice. HCT116 tumour cells were implanted in PBS; […] cells were implanted in PBS containing 50% matrigel.
(§3) When tumours had attained ˜200 mm^3, tumour bearing mice were randomised into treatment groups and dosed with the following; PBS; an isotype matched control IgG2 antibody, 15 mg per kg; anti-heparanase antibody 10E9.1, 7.5 or 15 mg per kg. All treatments were administered once weekly i.p. Tumour growth was measured twice per week using calipers and tumour volumes calculated according to an ellipsoid volume is formula (3.142/6×length×width×width) from measures of the largest tumour diameter and two opposing widths (FIG. 11).

For a further assay, the target named is T2, murine heparanase (Mus musculus, UniProt Q6YGZ1).
T2 construct: made in house; host or cells: Hek293 cells (conditioned medium), inferred for the ELISA
T2 sequence (Q6YGZ1 28-535): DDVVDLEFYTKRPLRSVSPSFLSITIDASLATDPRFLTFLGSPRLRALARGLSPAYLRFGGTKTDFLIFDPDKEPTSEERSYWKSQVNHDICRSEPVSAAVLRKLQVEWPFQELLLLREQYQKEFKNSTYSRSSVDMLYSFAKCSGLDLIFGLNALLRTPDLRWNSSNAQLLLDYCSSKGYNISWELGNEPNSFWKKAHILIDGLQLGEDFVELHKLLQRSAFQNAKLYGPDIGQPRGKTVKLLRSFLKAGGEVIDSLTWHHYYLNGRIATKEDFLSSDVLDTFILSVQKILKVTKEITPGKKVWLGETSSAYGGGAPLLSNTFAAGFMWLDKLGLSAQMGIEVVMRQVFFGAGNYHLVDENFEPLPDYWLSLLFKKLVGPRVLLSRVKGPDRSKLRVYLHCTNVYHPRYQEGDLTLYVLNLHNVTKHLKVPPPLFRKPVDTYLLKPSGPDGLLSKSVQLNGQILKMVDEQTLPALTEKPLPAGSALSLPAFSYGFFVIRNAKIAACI
Nature of the assay: Cross species capture ELISA, murine heparanase. The class given is binding. Conditions: min 0.06, max 0.9 OD units. How it is done:
as §1

Assay [1] deals with T3, recombinant human heparanase (Homo sapiens, UniProt Q9Y251).
T3 construct: Heparanase 8 and 50 kDa sub-units were cloned into pacGP67 as Sma 1-EcoR1 fragments; made in house; host or cells: Hi5 insect cells, baculovirus (pFastBac Dual)
T3 sequence (Q9Y251 158-543 limits assumed): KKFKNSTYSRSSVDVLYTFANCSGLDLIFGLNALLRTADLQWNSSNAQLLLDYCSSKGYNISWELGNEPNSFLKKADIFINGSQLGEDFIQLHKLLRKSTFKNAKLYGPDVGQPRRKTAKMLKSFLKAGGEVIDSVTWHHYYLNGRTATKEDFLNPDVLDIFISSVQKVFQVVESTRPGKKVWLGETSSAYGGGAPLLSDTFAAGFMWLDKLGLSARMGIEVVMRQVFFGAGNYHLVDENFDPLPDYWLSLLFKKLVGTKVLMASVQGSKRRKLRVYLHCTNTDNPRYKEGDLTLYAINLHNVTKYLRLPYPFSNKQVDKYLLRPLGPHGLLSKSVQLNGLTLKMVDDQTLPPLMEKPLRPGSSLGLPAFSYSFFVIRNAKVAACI
T3 sequence (Q9Y251 36-109 limits assumed): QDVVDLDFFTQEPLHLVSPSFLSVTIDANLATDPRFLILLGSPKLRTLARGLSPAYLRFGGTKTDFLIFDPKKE
Nature of the assay: ELISA binding to directly coated recombinant human heparanase. How it is done: (§4) Titres of antibodies from Campaigns 1 and 2 were determined in an ELISA. Costar 3368 medium binding plates were coated directly with recombinant human heparanase or plates were coated with Rabbit anti-heparanase antibody (Raybiotech, Cat. IP-14-155) to capture recombinant heparanase. Directly coated heparanase was detected in three separate plates by mouse (InSight Cat. INS-26-1-0000), goat (Santa Cruz, Cat. sc26136) or rabbit (Raybiotech, Cat. IP-14-155) anti-heparanase antibodies, and quantified using appropriate secondary antibodies. Antibody captured heparanase was detected using mouse anti-heparanase (Insight Cat. INS-26-1-0000). At the end of the immunisation program, fusions were performed using mouse myeloma cells and lymphocytes isolated from the spleens and lymph nodes of the immunised mice by means of electroporation, as described in Example 2.
(§5) Initial screening to detect antibodies binding to human heparanase in both direct coating and antibody capture ELISAs as described above identified 800 hybridomas for further testing; 535 IgG2 from Campaign 1 and 2 and 265 IgG4 from Campaign 2. Enzyme inhibition assays and cross species binding to cynomolgus and murine heparanase, in an antibody capture ELISA, identifed 12 antibodies that were taken forward for sub-cloning to provide purified antibodies for further analysis. Subsequently, confirmation of activity against human heparanase (FIGS. 3 and 4) and inhibition of recombinant cynomolgus and murine heparanase activity in the HS-cryptate degradation assay (FIG. 5a-c), together with sequence analysis, identified 8 antibodies that are described in the table below.

In the next assay the test system is MCF7-Hpa1#19 xenograft. The assay can be described thus: Subcutaneous xenograft tumour growth, MCF7-Hpa1#19. Conditions: once weekly i.p.; 10E9.1 at 7.5 or 15 mg per kg. The class given is in vivo, SCID mice. How it is done: as §2, §3
Assay [2] has as its target T4, recombinant heparanase captured with rabbit anti-heparanase antibody (Homo sapiens, UniProt Q9Y251).
T4 construct: Heparanase 8 and 50 kDa sub-units were cloned into pacGP67 as Sma 1-EcoR1 fragments; made in house; host or cells: Hi5 insect cells, baculovirus (pFastBac Dual)
T4 sequence (Q9Y251 158-543 limits assumed): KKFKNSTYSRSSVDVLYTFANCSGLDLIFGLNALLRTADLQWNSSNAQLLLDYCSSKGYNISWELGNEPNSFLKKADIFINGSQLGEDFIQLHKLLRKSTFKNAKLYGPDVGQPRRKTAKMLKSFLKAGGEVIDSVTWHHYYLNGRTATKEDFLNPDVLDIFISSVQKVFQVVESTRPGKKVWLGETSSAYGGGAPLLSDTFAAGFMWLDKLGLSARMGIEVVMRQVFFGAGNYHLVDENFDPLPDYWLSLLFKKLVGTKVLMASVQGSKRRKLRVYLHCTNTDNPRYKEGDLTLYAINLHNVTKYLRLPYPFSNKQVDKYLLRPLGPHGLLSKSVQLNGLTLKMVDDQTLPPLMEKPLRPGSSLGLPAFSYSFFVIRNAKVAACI
T4 sequence (Q9Y251 36-109 limits assumed): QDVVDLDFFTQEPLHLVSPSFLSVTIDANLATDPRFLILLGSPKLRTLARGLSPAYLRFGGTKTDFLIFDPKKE
Nature of the assay: ELISA binding to antibody-captured heparanase. The following applies: antibody capture. How it is done:
as §4, §5

In another assay the target is T5, Recombinant Hpa1 (Homo sapiens, UniProt Q9Y251).
T5 construct: Heparanase 8 and 50 kDa sub-units were cloned into pacGP67 as Sma 1-EcoR1 fragments; made in house; host or cells: Hi5 insect cells, baculovirus (pFastBac Dual)
T5 sequence (Q9Y251 158-543 limits assumed): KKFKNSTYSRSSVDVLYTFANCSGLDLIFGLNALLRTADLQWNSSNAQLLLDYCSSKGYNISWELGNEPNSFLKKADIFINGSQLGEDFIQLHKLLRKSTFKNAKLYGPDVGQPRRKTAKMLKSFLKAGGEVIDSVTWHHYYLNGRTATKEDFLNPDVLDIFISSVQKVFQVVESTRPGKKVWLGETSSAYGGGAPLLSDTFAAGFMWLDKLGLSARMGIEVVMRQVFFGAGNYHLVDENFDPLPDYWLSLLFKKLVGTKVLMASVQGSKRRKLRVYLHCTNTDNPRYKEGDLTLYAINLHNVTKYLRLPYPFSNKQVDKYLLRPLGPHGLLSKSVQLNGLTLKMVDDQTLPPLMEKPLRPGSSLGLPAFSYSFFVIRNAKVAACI
T5 sequence (Q9Y251 36-109 limits assumed): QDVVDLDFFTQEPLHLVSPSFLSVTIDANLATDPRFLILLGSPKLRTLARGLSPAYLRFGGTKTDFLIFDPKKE
The assay can be described thus: Medium resolution Biacore affinity. The class given is binding. Conditions: purified antibody captured on CM4 chip; Hpa1 1 nM and 10 nM; 25° C. How it is done: For medium resolution Biacore™ tests, cloned and purified antibodies were used. Each of three purified antibodies (10E9.1, 15A1.2, and 15A11.1) were captured onto a high-density goat anti-human antibody surface over a CM4 Biacore™ chip. Recombinant Hpa1 was diluted to the desired concentration (1 nM and 10 nM) in 10 mM HEPES, 150 mM NaCl, 0.005% tween-20, 0.1 mg per ml BSA pH7.4 (25° C.) immediately prior to injection. Data were fit globally to a 1:1 interaction model with a term for mass transport included. The resulting KD values are summarised below in Table 4.

The next assay has as its system cynomolgus heparanase. The assay can be described thus: Cross species capture ELISA, cynomolgus heparanase. Format: binding. Conditions: min 0.06, max 1.5 OD units. How it is done: as §1

B1: 15A11.1: fully human anti-heparanase monoclonal antibody, G2κ; VH SEQ ID NO 10, VL SEQ ID NO 12; ATCC PTA-9490 (antibody, listed as Homo Sapiens, V domains shown)
VH: QVQLVQSGAEVKKPGASVKVSCKVSGDTLTELSMHWVRQTPGKGLEWMGGFDPEDGETIYAQKFQGRVTMTGDTSTDTAYMELSSLRSEDTAVYYCATEGDYGDSEEYYYYYGMDVWGQGTTVTVSS
VL: DIQMTQSPSSLSASVGDRVTITCRASQGISNYLAWYQQKPGKVPKLLIYAASTLQSGVPSRFSGSGSGTDFTLTISSLQPEDVATYYCQKYNRAPFTFGPGTKVDIK
notes: fully human anti-heparanase monoclonal antibody, G2κ; ATCC PTA-9490
As for B1, the “Inhibition of heparanase expression” value with MDA MB231-Hpa1#4 cells is reported as “significant inhibition of heparanase expression”. Further, the “Binding to heparanase Human” value with human heparanase was 0.21 OD units. For the same molecule, the Tumour growth inhibition result in the assay with HCT116 xenograft and with MCF7-Hpa1#19 xenograft was “not inhibited” throughout. The “Binding to heparanase Mouse” value in the assay with murine heparanase is on record as 0.17 OD units. The “Binding to direct coated heparanase” value in [1] came out at 0.07 OD units. The “Binding to captured heparanase” value in assay [2] stood at 0.5 OD units. The ka with Recombinant Hpa1 is 3.6e+06 M⁻¹ s⁻¹. In the assay with Recombinant Hpa1, the kd was determined as 0.000309 s⁻¹. For the same molecule, the “Binding to heparanase Cyno” value in the assay with cynomolgus heparanase is 0.14 OD units.

These data come from patent US20100233154A1, “TARGETED BINDING AGENTS DIRECTED TO HEPARANASE AND USES THEREOF 463” (MedImmune Limited, priority 2008, published 2010).
